Earlier results on one substance are cited in article PMC5403572.

The term pKa denotes the negative logarithm of the acid dissociation constant.

Data set [1] deals with Asp228 (UniProt position 289, DKSIVDSGTTN). Briefly: kinetics. The following applies: apo (free) enzyme.
Data set [2] has as its target Asp32 (UniProt position 93, LNILVDTGSSN). Briefly: kinetics. The following applies: apo (free) enzyme.

As for “Beta-secretase 1 (BACE1, memapsin 2) (Homo sapiens)”, the pKa in data set [1] is 3.5; in data set [2] it was 5.2.
